Laboratory results as given in article PMC7440162 (Cell, 2020).

T1: IL-6Rα ECD-Fc (human, UniProt P08887 20-365, biotin on the AviTag (as SPR ligand))
T1 sequence: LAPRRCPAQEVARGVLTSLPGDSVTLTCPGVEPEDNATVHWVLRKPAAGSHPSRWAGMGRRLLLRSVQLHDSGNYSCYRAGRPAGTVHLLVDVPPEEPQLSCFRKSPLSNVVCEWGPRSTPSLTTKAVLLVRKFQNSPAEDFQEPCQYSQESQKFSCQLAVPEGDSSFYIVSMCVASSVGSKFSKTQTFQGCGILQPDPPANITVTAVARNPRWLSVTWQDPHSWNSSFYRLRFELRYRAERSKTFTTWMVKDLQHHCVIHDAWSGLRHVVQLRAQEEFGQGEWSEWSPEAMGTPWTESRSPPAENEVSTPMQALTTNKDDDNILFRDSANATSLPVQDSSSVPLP

T2: human ISLR2 ECD-Fc (human, UniProt Q6UXK2 19-589, biotin on the AviTag (as SPR ligand))
T2 sequence: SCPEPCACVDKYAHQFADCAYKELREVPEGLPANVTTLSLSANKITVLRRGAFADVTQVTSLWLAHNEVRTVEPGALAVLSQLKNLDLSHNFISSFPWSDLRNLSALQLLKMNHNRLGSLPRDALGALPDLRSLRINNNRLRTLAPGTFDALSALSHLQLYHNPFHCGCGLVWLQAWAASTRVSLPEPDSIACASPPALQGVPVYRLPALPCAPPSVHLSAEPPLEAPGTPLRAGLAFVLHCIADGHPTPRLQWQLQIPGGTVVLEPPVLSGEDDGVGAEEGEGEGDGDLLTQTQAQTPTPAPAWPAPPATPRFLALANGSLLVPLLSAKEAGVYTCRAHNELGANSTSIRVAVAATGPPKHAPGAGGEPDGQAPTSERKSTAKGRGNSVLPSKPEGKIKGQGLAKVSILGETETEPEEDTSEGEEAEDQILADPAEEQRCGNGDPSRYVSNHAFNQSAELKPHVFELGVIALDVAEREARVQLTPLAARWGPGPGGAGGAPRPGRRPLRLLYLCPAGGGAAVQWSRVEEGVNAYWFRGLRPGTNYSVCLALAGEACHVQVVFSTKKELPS

T3: PRTG ECD-Fc (human, UniProt Q2VWP7 36-949)
T3 sequence: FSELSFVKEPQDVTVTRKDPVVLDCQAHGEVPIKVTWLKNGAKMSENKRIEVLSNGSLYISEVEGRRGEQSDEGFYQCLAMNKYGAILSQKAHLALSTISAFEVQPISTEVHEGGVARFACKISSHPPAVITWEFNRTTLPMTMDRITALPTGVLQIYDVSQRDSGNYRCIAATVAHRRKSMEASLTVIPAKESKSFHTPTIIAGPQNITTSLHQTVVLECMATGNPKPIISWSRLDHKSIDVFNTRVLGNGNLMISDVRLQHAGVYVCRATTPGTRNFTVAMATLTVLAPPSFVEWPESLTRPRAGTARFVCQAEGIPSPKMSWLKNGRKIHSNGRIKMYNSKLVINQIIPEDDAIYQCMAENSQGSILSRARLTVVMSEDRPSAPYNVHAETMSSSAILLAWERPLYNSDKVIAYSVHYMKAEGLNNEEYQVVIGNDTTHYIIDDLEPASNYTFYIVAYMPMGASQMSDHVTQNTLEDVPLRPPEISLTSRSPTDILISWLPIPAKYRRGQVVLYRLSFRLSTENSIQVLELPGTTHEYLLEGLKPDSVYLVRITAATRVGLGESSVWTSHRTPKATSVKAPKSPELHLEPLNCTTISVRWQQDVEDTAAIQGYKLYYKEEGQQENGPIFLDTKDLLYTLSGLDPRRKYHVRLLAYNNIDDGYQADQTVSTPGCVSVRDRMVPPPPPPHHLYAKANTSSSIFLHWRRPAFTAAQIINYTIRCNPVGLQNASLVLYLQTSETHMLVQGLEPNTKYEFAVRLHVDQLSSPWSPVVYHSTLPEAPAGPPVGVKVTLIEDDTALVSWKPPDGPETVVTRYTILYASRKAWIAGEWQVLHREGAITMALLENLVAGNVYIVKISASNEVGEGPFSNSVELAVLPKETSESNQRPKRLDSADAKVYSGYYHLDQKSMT

T4: TIE1 ECD-Fc (human, UniProt P35590 22-759, biotin on the AviTag (as SPR ligand))
T4 sequence: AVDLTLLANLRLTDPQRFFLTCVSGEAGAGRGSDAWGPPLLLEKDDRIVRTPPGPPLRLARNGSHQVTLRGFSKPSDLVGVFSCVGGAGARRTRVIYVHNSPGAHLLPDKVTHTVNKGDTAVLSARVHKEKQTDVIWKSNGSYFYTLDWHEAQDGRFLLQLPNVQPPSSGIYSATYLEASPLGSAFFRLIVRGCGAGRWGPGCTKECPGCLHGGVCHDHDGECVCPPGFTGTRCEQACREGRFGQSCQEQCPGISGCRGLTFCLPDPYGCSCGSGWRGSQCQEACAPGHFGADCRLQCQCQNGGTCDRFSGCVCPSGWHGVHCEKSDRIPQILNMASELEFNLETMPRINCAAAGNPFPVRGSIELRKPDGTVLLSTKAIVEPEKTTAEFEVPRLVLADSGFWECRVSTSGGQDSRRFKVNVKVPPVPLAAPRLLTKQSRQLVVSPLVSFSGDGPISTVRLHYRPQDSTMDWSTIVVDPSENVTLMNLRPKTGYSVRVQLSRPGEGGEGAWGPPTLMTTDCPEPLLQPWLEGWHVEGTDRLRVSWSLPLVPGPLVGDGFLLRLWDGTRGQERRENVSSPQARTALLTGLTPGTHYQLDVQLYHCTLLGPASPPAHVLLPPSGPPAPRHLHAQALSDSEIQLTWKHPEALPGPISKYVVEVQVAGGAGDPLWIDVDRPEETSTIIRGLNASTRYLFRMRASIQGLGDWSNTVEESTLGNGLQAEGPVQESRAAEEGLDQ

T5: PTPRS ECD-Fc (human, UniProt Q13332 30-1282)
T5 sequence: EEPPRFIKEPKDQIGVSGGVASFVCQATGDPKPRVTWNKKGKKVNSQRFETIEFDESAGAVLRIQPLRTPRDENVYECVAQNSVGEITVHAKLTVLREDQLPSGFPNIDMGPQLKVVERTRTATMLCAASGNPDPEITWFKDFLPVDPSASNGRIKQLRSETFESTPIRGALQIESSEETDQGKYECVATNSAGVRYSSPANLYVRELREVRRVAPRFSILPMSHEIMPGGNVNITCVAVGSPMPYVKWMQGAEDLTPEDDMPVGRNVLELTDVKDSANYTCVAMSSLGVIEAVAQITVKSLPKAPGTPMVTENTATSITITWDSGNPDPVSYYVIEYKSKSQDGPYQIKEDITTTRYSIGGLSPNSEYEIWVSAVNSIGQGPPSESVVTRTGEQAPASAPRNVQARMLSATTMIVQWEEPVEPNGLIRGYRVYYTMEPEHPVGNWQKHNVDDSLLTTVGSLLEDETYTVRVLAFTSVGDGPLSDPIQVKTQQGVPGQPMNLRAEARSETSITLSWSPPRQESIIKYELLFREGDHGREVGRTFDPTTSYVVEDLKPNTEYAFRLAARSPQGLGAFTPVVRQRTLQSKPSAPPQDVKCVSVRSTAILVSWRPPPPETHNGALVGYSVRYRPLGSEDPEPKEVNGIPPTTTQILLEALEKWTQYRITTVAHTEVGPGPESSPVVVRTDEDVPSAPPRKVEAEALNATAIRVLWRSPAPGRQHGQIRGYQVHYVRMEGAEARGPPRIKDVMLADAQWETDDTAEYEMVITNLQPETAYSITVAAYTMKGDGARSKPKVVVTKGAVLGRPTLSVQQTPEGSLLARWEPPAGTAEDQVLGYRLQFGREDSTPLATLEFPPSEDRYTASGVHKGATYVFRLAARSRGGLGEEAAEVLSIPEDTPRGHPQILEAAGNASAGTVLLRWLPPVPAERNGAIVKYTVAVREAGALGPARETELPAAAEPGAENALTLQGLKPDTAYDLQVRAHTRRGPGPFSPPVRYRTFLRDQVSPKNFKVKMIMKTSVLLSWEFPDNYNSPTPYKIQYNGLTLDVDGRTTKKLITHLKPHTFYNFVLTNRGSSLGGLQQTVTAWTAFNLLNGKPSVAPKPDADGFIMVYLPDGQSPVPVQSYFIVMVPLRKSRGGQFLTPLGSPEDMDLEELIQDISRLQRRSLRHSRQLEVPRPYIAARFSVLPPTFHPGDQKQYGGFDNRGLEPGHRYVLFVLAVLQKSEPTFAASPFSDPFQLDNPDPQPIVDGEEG

T6: FGFR3 ECD-Fc (human, UniProt P22607 23-375)
T6 sequence: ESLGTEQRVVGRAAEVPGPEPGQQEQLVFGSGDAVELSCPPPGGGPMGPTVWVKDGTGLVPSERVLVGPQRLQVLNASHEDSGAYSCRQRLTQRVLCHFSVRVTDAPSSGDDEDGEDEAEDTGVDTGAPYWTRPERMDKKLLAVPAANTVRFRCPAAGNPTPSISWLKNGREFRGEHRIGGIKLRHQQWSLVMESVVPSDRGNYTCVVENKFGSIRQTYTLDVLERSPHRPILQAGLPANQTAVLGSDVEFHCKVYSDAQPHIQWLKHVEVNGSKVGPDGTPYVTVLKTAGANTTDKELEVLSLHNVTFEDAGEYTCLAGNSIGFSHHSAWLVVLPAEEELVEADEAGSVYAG

B1: IGFBP7-Fc (Fc fusion)
chain: SSSDTCGPCEPASCPPLPPLGCLLGETRDACGCCPMCARGEGEPCGGGGAGRGYCAPGMECVKSRKRRKGKAGAAAGGPGVSGVCVCKSRYPVCGSDGTTYPSGCQLRAASQRAESRGEKAITQVSKGTCEQGPSIVTPPKDIWNVTGAQVYLSCEVIGIPTPVLIWNKVKRGHYGVQRTELLPGDRDNLAIQTRGGPEKHEVTGWVLVSPLSKEDAGEYECHASNSQGQASASAKITVVDALHEIPVKKGEGAEL
modifications: biotin on the AviTag (as SPR ligand)
B2: TrkA ECD-Fc (Fc fusion)
chain: AAPCPDACCPHGSSGLRCTRDGALDSLHHLPGAENLTELYIENQQHLQHLELRDLRGLGELRNLTIVKSGLRFVAPDAFHFTPRLSRLNLSFNALESLSWKTVQGLSLQELVLSGNPLHCSCALRWLQRWEEEGLGGVPEQKLQCHGQGPLAHMPNASCGVPTLKVQVPNASVDVGDDVLLRCQVEGRGLEQAGWILTELEQSATVMKSGGLPSLGLTLANVTSDLNRKNVTCWAENDVGRAEVSVQVNVSFPASVQLHTAVEMHHWCIPFSVDGQPAPSLRWLFNGSVLNETSFIFTEFLEPAANETVRHGCLRLNQPTHVNNGNYTLLAANPFGQASASIMAAFMDNPFEFNPEDPIPVSFSPVDTNSTSGDPVEKKDETPFGVSVAVG
modifications: biotin on the AviTag (in streptavidin-Alexa 647 tetramers)
B3: Recombinant Human Angiopoietin-1 Protein (ligand)
chain: HIGCSNQRRSPENSGRRYNRIQHGQCAYTFILPEHDGNCRESTTDQYNTNALQRDAPHVEPDFSSQKLQHLEHVMENYTQWLQKLENYIVENMKSEMAQIQQNAVQNHTATMLEIGTSLLSQTAEQTRKLTDVETQVLNQTSRLEIQLLENSLSTYKLEKQLLQQTNEILKIHEKNSLLEHKILEMEGKHKEELDTLKEEKENLQGLVTRQTYIIQELEKQLNRATTNNSVLQKQQLELMDTVHNLVNLCTKEGVLLKGGKREEEKPFRDCADVYQAGFNKSGIYTIYINNMPEPKKVFCNMDVNGGGWTVIQHREDGSLDFQRGWKEYKMGFGNPSGEYWLGNEFIFAITSQRQYMLRIELMDWEGNRAYSQYDRFHIGNEKQNYRLYLKGHTGTAGKQSSLILHGADFSTKDADNDNCMCKCALMLTGGWWFDACGPSNLNGMFYTAGQNHGKLNGIKWHYFKGPSYSLRSTTMMIRPLDF
B4: IL1RAPL2 ECD-Fc (Fc fusion)
chain: TNLKMVSKRNSVDGCIDWSVDLKTYMALAGEPVRVKCALFYSYIRTNYSTAQSTGLRLMWYKNKGDLEEPIIFSEVRMSKEEDSIWFHSAEAQDSGFYTCVLRNSTYCMKVSMSLTVAENESGLCYNSRIRYLEKSEVTKRKEISCPDMDDFKKSDQEPDVVWYKECKPKMWRSIIIQKGNALLIQEVQEEDGGNYTCELKYEGKLVRRTTELKVTALLTDKPPKPLFPMENQPSVIDVQLGKPLNIPCKAFFGFSGESGPMIYWMKGEKFIEELAGHIREGEIRLLKEHLGEKEVELALIFDSVVEADLANYTCHVENRNGRKHASVLLRKKDLIYK
modifications: biotin on the AviTag (as SPR ligand)
B5: IGFBPL1-Fc (Fc fusion)
chain: LGIRDVGGRRPKCGPCRPEGCPAPAPCPAPGISALDECGCCARCLGAEGASCGGRAGGRCGPGLVCASQAAGAAPEGTGLCVCAQRGTVCGSDGRSYPSVCALRLRARHTPRAHPGHLHKARDGPCEFAPVVVVPPRSVHNVTGAQVGLSCEVRAVPTPVITWRKVTKSPEGTQALEELPGDHVNIAVQVRGGPSDHEATAWILINPLRKEDEGVYQCHAANMVGEAESHSTVTVLDLSKYRSFHFPAPDDRM
modifications: biotin on the AviTag (as SPR ligand)

Tests used:
Test in all cases: SPR
IL-6Rα ECD-Fc = target: T1, IL-6Rα ECD-Fc
human ISLR2 ECD-Fc = target: T2, human ISLR2 ECD-Fc
PRTG ECD-Fc = target: T3, PRTG ECD-Fc
TIE1 ECD-Fc = target: T4, TIE1 ECD-Fc
TIE2 ECD-Fc = TIE2 ECD-Fc (human, UniProt Q02763 23-748, biotin on the AviTag (as SPR ligand))
Sequence of TIE2 ECD-Fc (Q02763 23-748): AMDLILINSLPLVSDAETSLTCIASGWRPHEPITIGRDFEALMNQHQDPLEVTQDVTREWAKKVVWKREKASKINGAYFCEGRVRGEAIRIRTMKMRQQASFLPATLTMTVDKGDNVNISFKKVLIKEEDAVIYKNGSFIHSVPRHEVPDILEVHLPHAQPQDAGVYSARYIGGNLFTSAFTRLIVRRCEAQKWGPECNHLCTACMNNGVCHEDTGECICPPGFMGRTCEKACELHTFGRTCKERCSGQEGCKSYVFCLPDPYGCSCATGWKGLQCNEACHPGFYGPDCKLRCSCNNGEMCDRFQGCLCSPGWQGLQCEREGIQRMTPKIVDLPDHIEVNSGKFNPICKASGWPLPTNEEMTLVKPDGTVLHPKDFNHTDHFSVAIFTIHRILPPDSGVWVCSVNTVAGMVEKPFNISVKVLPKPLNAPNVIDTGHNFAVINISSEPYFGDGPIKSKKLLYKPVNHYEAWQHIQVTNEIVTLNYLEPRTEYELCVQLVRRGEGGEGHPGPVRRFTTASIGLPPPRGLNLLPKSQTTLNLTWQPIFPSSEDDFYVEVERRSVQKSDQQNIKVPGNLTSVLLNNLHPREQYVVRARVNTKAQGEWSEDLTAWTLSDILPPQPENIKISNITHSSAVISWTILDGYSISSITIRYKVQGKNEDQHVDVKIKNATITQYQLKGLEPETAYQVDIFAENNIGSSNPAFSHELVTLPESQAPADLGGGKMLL

PTPRS ECD-Fc = target: T5, PTPRS ECD-Fc
FGFR3 ECD-Fc = target: T6, FGFR3 ECD-Fc

Row | Binder | binding result (IL-6Rα ECD-Fc) | binding result (human ISLR2 ECD-Fc) | binding result (PRTG ECD-Fc) | further results
1 | B1 | binds | binds | binds | 
2 | B2 |  |  |  | binding result (TIE1 ECD-Fc): binds
3 | B3 |  |  |  | binding result (TIE2 ECD-Fc): binds
4 | B4 |  |  |  | binding result (PTPRS ECD-Fc): binds; binding result (FGFR3 ECD-Fc): binds
5 | B5 | binds | binds | binds | 
